The text below walks through data of patent US20090239794A1, “HCV F PROTEIN AND USES THEREOF” (priority 2004, published 2009).

The target of the test is HLA-A*0201 on the surface of T2 cells (human). Description: T2 peptide binding assay, W6/32-FITC flow cytometry.

B1: F protein peptide F29-43 (peptide)
peptide: VRSLVEFTCCRAGAL
modifications: not checked
As for B1, the peak fluorescence, % of the level obtained with NS3 1406-1415 is 87.6%.

B2: F protein peptide F37-51 (peptide)
peptide: CCRAGALDWVCARRE
modifications: not checked
B2 displayed a peak fluorescence, % of the level obtained with NS3 1406-1415 of 79.2%.

B3: F protein peptide F101-115 (peptide)
peptide: PVALGLAGAPQTPGV
modifications: not checked
The molecule B3 registered a peak fluorescence, % of the level obtained with NS3 1406-1415 of 83.2%.
